Results taken from patent US20150132307A1 (Hoffmann-La Roche, published 2015).

T1: human Flag-tagged soluble TWEAK (amino acids 106-249) (human, UniProt O43508 106-249)
T1 construct: The sentence gives amino acids 106-249 without naming the entry; also called Human TWEAK; not shown: Flag tag
T1 sequence: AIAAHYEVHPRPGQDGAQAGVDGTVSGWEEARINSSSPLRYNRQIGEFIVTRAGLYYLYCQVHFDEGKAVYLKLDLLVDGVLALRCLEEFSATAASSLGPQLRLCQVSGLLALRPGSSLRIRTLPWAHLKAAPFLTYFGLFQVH

T2: Mouse soluble TWEAK (untagged, Example 5) (mouse, UniProt O54907 105-249, limits assumed)
T2 construct: also called Murine TWEAK
T2 sequence: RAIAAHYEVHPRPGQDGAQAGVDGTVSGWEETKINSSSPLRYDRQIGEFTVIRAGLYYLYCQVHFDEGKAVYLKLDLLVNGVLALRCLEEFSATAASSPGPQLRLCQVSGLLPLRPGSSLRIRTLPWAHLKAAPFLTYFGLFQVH

T3: Human recombinant soluble TWEAK (Example 6) (human, UniProt O43508 99-249, limits assumed)
T3 sequence: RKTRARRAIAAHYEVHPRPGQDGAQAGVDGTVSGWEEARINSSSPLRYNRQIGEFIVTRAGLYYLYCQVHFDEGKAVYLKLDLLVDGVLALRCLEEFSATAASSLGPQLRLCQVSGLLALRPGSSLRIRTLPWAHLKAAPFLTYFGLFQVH

T4: Biotinylated human soluble TWEAK (amino acids 99-249 of SEQ ID NO: 68) (human, UniProt O43508 99-249, biotinylated)
T4 construct: also called Human TWEAK
T4 sequence: T3 sequence

T5: Recombinant human TWEAK (R&D Systems; Cat. #1090-TW/CF) (human, UniProt O43508 97-249, limits assumed)
T5 sequence: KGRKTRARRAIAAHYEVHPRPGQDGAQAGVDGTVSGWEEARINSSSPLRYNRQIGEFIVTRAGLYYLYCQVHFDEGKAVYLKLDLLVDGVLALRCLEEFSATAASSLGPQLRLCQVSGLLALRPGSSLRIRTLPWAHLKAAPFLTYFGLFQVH

T6: IL-17 F/F (human, UniProt Q96PD4 31-163)
T6 construct: read as the homodimer of IL17F
T6 sequence: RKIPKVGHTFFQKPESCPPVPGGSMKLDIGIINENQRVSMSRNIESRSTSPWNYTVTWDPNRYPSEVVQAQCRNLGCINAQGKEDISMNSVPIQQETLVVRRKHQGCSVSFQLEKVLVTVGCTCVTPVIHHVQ

B1: <TWEAK> 301 (rabbit) (antibody, V domains shown)
VH: QSLEESGGGLVKPGASLTLTCTASGFTFNANYWICWVRQAPGKGLEWIACIYGGGNSGAYYASWATGRFTISRTSSTTVTLQMTSLTAADTATYFCARGPISRDLWGPGTLVTVSL
VL: DVVMTQTPASVSEPVGGTVTIKCQASQSIYSSLAWYQQKPGQPPKLLIYDAFDLASGVSSRFTGSGSGTQFTLTISDLECADAATYYCQSTDYGNSWDGNPFGGGTEVVVT
notes: Rabbit parent antibody; purified antibody or hybridoma supernatant was used
B2: <TWEAK> 304 (rabbit) (antibody, V domains shown)
VH: QSLEESGGDLVKPGASLTLTCKASGFSFSSTYYMCWVRQAPGKGLEWIGCIYVGSSGAPYYASWAKGRFTISKTSSTTVALQMTSLTPADTATYVCTRSVHFGDLWGPGTLVTVSS
VL: DVVMTQTPSPVSAAVGGTVTIKCQASQSIGNDLSWYQQKPGQRPKLLIYSVSTLASGVPSRFKGSGSGTEYSLTISDVQCADAATYYCQCIDYGNNYVGNTFGGGTEVVVK
notes: Rabbit parent antibody
B3: <TWEAK> 305chi (antibody, human IgG1, kappa, V domains shown)
VH: QEQLVESGGGLVQPGGSLTLSCKASGFDFSTYYMSWVRQAPGKGLEWIGTVYVRQGTTYYASWLNGRFTISSDNAQNTVDLKMNSLTAADTATYFCAKGGYNYDDAFVIWGPGTLVTVSF
VL: AIEMTQTPFSVSAAVGGTVTINCQASQNIYSNLAWYQQKPGQPPKLLMYTASYLASGVPSRFKGSGSRTEYTLTISGVQCADAATYYCQTAYYNSRPDTVAFGGGTEVVVKR
notes: Chimer: rabbit variable domains with human kappa and human IgG1 constant regions
B4: Bispecific <Tweak-IL-17> #2 antibody (bispecific antibody, human IgG1, kappa)
heavy 1: not shown
heavy 2: not shown
light 1: DIVMTQSPLSLPVTPGEPASISCRSSQSLVHSNGDTYFHWYLQKPGQSPQLLIYKVSNRFSGVPDRFSGSGSGTDFTLKISRVEAEDVGVYYCSQTTHAPFTFGQGTKLEIKRTVAAPSVFIFPPSDEQLKSGTASVVCLLNNFYPREAKVQWKVDNALQSGNSQESVTEQDSKDSTYSLSSTLTLSKADYEKHKVYACEVTHQGLSSPVTKSFNRGEC
light 2: DIQMTQSPSSVSASVGDRVTITCQASQNIYSNLAWYQQKPGKAPKLLIYTASYLASGVPSRFSGSGSGTDYTLTISSLQPEDFATYYCQTAYYNSRPDTVAFGGGTKVEIKSSASTKGPSVFPLAPSSKSTSGGTAALGCLVKDYFPEPVTVSWNSGALTSGVHTFPAVLQSSGLYSLSSVVTVPSSSLGTQTYICNVNHKPSNTKVDKKVEPKSC
notes: Bivalent CrossMab (CH1-CL exchanged, WO 2009/080253), IgG1 knobs-into-holes

Tests used:
[1] = molecular target: T1, human Flag-tagged soluble TWEAK (amino …); test: receptor interaction ELISA: Flag-TWEAK 2.5 ng/ml preincubated with antibody, then on coated human Fn14:Fc (competitor m21)
Method: 96-well Maxisorp® plates (Nunc) were coated with 100 μl 1 μg/ml human Fn14:Fc (extracellular domain of human Fn14 (amino acids 1-75 of SEQ ID NO: 98) fused to Fc portion of human IgG1) in PBS per well for 1.5 h at room temperature and blocked with a solution of 5% FBS in PBS for 30 minutes at room temperature under shaking. […] After washing the Fn14-coated plate once with wash buffer (0.1% Tween® 20 in PBS), 100 μl of the TWEAK-antibody solution were transferred to each well and the plate was incubated for 1 h at room temperature, followed by four washes with wash buffer. Wells were filled with 100 μl of anti-FLAG-HRP detection antibody, diluted 1:5000 in blocking buffer, and incubated for 1 h at room temperature. After four more wash steps, the signal was developed by addition of 100 μl 3,3,5,5-Tetramethylbenzidine (TMB) solution for approximately ten minutes. The reaction was stopped by adding 100 μl of 1 N HCl, and absorbance measured at 450 nm (reference wavelength 620 nm).

[2] = molecular target: T2, Mouse soluble TWEAK (untagged, Example …); test: receptor interaction ELISA: mouse soluble TWEAK 4 ng/ml preincubated with antibody, then on coated mouse Fn14:Fc (competitor m22)
Method: Briefly, Maxisorp plates were coated with mouse Fn14:Fc (extracellular domain of mouse Fn14 (amino acids 1-75 of SEQ ID NO: 98) fused to Fc portion of human IgG1) as described above for human Fn14:Fc, followed by blocking and washing. […] After 1 h of incubation at room temperature and four washes, biotinylated anti-mouse TWEAK antibody at 125 ng/ml in blocking buffer was added for 1 h at room temperature, followed by another four wash steps. The TWEAK antibody was detected by incubation with streptavidin-HRP, diluted 1:5000 in blocking buffer, for 30 minutes at room temperature. Signal was developed and absorbance measured as described above.

[3] = molecular target: T3, Human recombinant soluble TWEAK …; test: cell-based or functional assay
[4] = molecular target: T4, Biotinylated human soluble TWEAK (amino …); test: SPR (Biacore 2000), biotinylated soluble TWEAK on streptavidin chip, antibody 100 nM as analyte, 25 C
Method: A Biacore 2000 instrument was used with a Biacore streptavidin coated sensor mounted into the system. The system buffer HBS-ET (10 mM HEPES pH 7.4, 150 mM NaCl, 1 mM EDTA, 0.05% Tween® 20) was used at a flow rate of 100 μl/min. The sample buffer was the system buffer. Biotinylated human soluble TWEAK (amino acids 99-249 of SEQ ID NO: 68) and biotinylated murine soluble TWEAK (amino acids 81-225 of SEQ ID NO: 69) was immobilized on different flow cells on the SA sensor at 150 RU each. The flow cell FC1 was used as a blank reference cell. Each antibody was injected into the system as an analyte at 100 nM at 100 μl/min for 2 min association time. The dissociation of the immunecomplexes were monitored for 5 min. The sensor surface was washed with HBS-ET for 10 seconds and regenerated using 2×2 minutes injections with 10 mM glycine pH 2.25. This procedure was done at 25° C. The kinetically rate limiting step of the complex dissociation phase in the interval [240 s-300 s] was taken to calculate the dissociation rate kd [1/s] (Biacore Evaluation Software 4.0). According to the equation t1/2 diss=ln(2)/(60×kd), the half-life of the immunocomplexes in minutes was calculated.

IL-17 A/F = molecular target: T7, IL-17 A/F (human, UniProt Q16552 24-155; Q96PD4 31-163); test: SPR (BIAcore T100), antibody captured by anti-human F(ab')2, IL17 as analyte, 25 C, 1:1 model
T7 construct: read as the heterodimer of IL17A and IL17F
Method: (§1) Around 12000 resonance units (RU) of the capturing system (10 μg/ml goat anti human F(ab′)2; Order Code: 28958325; GE Healthcare Bio-Sciences AB, Schweden) were coupled on a CMS chip at pH 5.0 by using an amine coupling kit supplied by the GE Healthcare. The sample and system buffer was PBS-T (10 mM phosphate buffered saline including 0.05% Tween20) pH 7.4. The bispecific antibody was captured by injecting a 50 nM solution for 1 min at a flow of 10 μl/min. Association was measured by injection human IL17 in various concentrations in solution for 3 min at a flow of 30 μl/min starting with 50 nM in 1:1 dilutions. The dissociation phase was monitored for up to 5 min and triggered by switching from the sample solution to running buffer. The surface was regenerated by two times 60 sec. washing with a glycin pH 2.1 solution at a flow rate of 30 μl/min. Bulk refractive index differences were corrected by subtracting the response obtained from a goat anti human F(ab′)2 surface. Blank injections are also subtracted (=double referencing). For calculation of apparent KD and other kinetic parameters the Langmuir 1:1 model was used.

human IL17A/A = human IL17A/A (human, UniProt Q16552 24-155, limits assumed); test: SPR (BIAcore T100), antibody captured by anti-human F(ab')2, IL17 as analyte, 25 C, apparent KD, 1:1 model
Method: as §1

[5] = molecular target: T5, Recombinant human TWEAK (R&D Systems; …); test: cell-based or functional assay
IL-17 F/F = molecular target: T6, IL-17 F/F; test: SPR (BIAcore T100), antibody captured by anti-human F(ab')2, IL17 as analyte, 25 C
Method: as §1

T7 sequence (Q16552 24-155 limits assumed, one chain of several): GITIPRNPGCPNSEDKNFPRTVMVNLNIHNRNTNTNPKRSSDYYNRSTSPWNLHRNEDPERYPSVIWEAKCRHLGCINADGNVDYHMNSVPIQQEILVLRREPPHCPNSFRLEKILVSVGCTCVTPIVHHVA
Chain of human IL17A/A (Q16552 24-155 limits assumed): as the sequence (Q16552 24-155 limits assumed, one chain of several) above

Row | Binder | IC50 [1] [ng/mL] | IC50 [2] [ng/mL] | Inhibition of IL-8 Secretion IC50 [ng/ml] (A375 cells) [3] [ng/mL] | t/2 diss [min] 25° C. [4] [min] | Kd (IL-17 A/F) [nM] | Kd (human IL17A/A) [nM] | IC50 (nM) per valency, Tweak induced HFLS proliferation (CellTiter Glo) [5] [nM] | binding result (IL-17 F/F)
1 | B1 | 3.4 | 4.7 | 128 | – | – | – | – | –
2 | B2 | 2.8 | 3.6 | 109 | – | – | – | – | –
3 | B3 | 2.6 | – | 104 | 147 | – | – | – | –
4 | B4 | – | – | – | – | 0.25 | 0.15 | 0.065 | no binding (tested: IL17 injected starting with 50 nM)
